Laboratory results: publication PMC9747239, “State-selective modulation of heterotrimeric Gαs signaling with macrocyclic peptides” (Cell, 2022)

Molecular target: T1, His-Gβ1/Gγ2(C68S) (human, UniProt P62873 1-340; P59768 1-71, C68S)
T1 construct: human Gβ1 (GNB1); human Gγ2 (GNG2) with C68S; also called Gβγ; Gβγ(C68S); source: Sf9, baculovirus (pFastBac Dual), co-expressed, purified (TALON, gel filtration); not shown: His6, N-terminal, kept
Assay: AlphaScreen or HTRF; TR-FRET Gα/Gβγ interaction assay: 4 nM biotinylated avi-Gα with streptavidin XL665, 2 nM His-Gβ1/γ2(C68S) with anti-6His-Tb cryptate, cyclic peptide 0-10,000 nM; 1X PBS 7.4, 2 mM DTT, 0.1% BSA, 2 mM MgCl2, 0.05% Tween, 0.5 mM GDP, 2 h at room temperature
Settings: both partners purified

T1 sequence (P62873 whole entry, chain 1 of 2): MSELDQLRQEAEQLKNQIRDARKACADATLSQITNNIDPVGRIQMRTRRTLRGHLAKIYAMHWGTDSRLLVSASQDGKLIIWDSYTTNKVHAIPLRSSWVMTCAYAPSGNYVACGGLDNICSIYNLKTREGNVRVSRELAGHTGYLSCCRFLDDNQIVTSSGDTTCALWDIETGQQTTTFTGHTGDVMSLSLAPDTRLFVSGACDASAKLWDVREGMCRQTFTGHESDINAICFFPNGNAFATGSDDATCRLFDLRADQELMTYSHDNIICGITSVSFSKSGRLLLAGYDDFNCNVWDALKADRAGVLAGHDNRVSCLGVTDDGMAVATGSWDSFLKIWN
T1 sequence (P59768 whole entry C68S, chain 2 of 2): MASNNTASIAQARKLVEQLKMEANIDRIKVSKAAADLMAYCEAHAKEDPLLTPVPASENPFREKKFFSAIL

B1: Biotinylated Avi-Gαs (WT), residues 7-380 of the short isoform of human Gαs (natural protein)
chain: SKTEDQRNEEKAQREANKKIEKQLQKDKQVYRATHRLLLLGAGESGKSTIVKQMRILHVNGFNGDSEKATKVQDIKNNLKEAIETIVAAMSNLVPPVELANPENQFRVDYILSVMNVPDFDFPPEFYEHAKALWEDEGVRACYERSNEYQLIDCAQYFLDKIDVIKQADYVPSDQDLLRCRVLTSGIFETKFQVDKVNFHMFDVGGQRDERRKWIQCFNDVTAIIFVVASSSYNMVIREDNQTNRLQEALNLFKSIWNNRWLRTISVILFLNKQDLLAEKVLAGKSKIEDYFPEFARYTTPEDATPEPGEDPRVTRAKYFIRDEFLRISTASGDGRHYCYPHFTCAVDTENIRRVFNDCRDIIQRMHLRQYELL
modifications: biotin on the Avi tag (BirA)
notes: human Gαs (GNAS), short isoform, residues 7-380; Loaded with GNP (GppNHp) or GDP; the nucleotide state is told by the assay; also called Gαs/GNP; Gαs/GDP; source: E. coli BL21(DE3), purified (TALON, Drice cleavage, BirA biotinylation, Source-15Q, gel filtration); not shown: Avi tag, N-terminal, kept; His6, N-terminal, cleaved
Question: Does B1 bind?
Answer: Result: binds
